Measurements from patent publication US20190248902A1 (published 2019).
Positions count from the first letter of the chain named.

T1: recombinant, soluble human ASGR-1 (human, UniProt P07306 62-291)
T1 construct: biotinylated in the binning assay; also called soluble huASGR-1; Soluble ASGR-1 (Amgen)
T1 sequence: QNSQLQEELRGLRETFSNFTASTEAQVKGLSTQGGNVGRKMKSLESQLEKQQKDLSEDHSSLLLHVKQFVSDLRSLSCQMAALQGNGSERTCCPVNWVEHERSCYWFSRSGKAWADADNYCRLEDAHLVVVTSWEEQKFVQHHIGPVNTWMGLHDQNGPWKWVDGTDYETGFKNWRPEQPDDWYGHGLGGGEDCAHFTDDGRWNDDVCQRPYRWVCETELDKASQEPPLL

B1: 146B6 (antibody, V domains shown)
VH: EVQLVESGGGLVQPGGSLRLSCAASGFTFSSYNMNWVRQAPGKGLEWVSYISRSSNTKHYADSVKGRFTISRDNAKNSLYLQMDSLRDEDTAVYYCARDRSGSYGYFYYYGLDVWGQGTTVTVSS
VL: not shown
notes: hybridoma mAb
B2: 226F9 (antibody, V domains shown)
VH: QVQLVQSGAEVKKPGASVKVSCKASGYTFTGYYIHWVRQAPGQGLEWMGWINPYSGDTKYAQKFQGRVTMTRATSISTAYMELSRLRFDDTAVFYCARDWGGYSSYYYGMDVWGQGTTVTVSS
VL: DIVMTQTPLSLSVTPGQPASISCKSSQSLLHSDGKTFLYWYLQKPGQPPQLLIYEISNRFSGVPDRFSGSGSGTDFTLKISRVEAEDVGIYYCMQSTQLPRTFGQGTKVEIK
notes: hybridoma mAb
B3: 176H4 (antibody, V domains shown)
VH: QVQLVESGGGVVQPGRSLRLSCAASGFTFSSYGMHWVRQAPGKGLEWVAIIWYDGSYKYYADSVKGRFTISRDNSKNTLYLQMSSLRAEDTAVYYCARDAHDFWSGYFAYWGQGALVTVSS
VL: B2 VL with S32G, F37Y, I56V, T97I, L99I, R101W, K108R
notes: hybridoma mAb
B4: 227C1 (antibody, V domains shown)
VH: B2 VH with I34T, D57G, K59N, A73D, F94Y
VL: B2 VL
notes: hybridoma mAb
B5: 224G1 (antibody, V domains shown)
VH: B2 VH with K59N, A73D
VL: B2 VL with S26G, Y39S, Y91F
notes: hybridoma mAb
B6: 227F2 (antibody, V domains shown)
VH: B2 VH with Q3H, A73D
VL: B2 VL
notes: hybridoma mAb
B7: 198D2 (antibody, V domains shown)
VH: QVQLVESGGGVVQPGRSLRLSCAASGFTFRSYGMHWVRQAPGKGLEWVAVIIYDGSYKYYADSVKGRFTISRDNSKNTLYLQMNSLRAEDTAVYYCARTYSGGMDVWGQGTTVTVSS
VL: QSVLTQPPSVSAAPGQKVTISCSGSSSNIGSNYVSWYQQLPGTAPKVLIYDNNKRPSGIPDRFSGSKSGTSATLGITGLQTGDEADYYCGTWDSRLNVGVFGGGTKLTVL
notes: hybridoma mAb
B8: 65C12 (antibody, V domains shown)
VH: EVQLVESGGGLVKPGGSLRLSCAASGFTFRSFSLNWVRQAPGKGLEWVSSISSSSSYIYYADSVKGRFTISRDNAKNSLYLQMNSLRAEDTAVYYCARDAYSHYWGQGTLVTVSS
VL: EIVMTQSPATLSVFPGEGATLSCRASQSVSINLAWYQQKPGQAPRLLIYGASTRATGIPARFNASGSGTEFTLSISSLQSENFAVYYCQQYNTWPLTFGGGTKVEIK
notes: hybridoma mAb
B9: 194C10 (antibody, V domains shown)
VH: QVQLQQWGAGLLKPSETLSLTCAVSGGSFRYYYWSWIRQPPGKGLEWFGEINHSGSTNYNPSLKSRVTISIDTSKNQFSLKLRSVTAADTAVYYCARDYGAFDIWGQGTMVTVSS
VL: EIVLTQSPGTLSLSPGERATLSCRASPSVNSGYLAWYQQKPGQTPRLLIFGASSRATGIPDRFSASGSGADFTLTISRLEPEDFAVYFCQQYESSPWTFGQGTKVEIK
notes: hybridoma mAb
B10: 52D10 (antibody, V domains shown)
VH: QVQLVESGGGVVQPGRSLRLSCAASGFTFSSYGMHWVRQAPGKGLEWVALIWYDGSNKYHADSVKGRFTISRDNSKNTLYLQMNSLRAEDTAVYYCARRYSSSWSGGMDVWGQGTTVTVSS
VL: DVMMTQIPLSLSVTPGQPASISCKSSQSLLHSEGKTYLYWYLQKPGQPPQLLIFEVSNRVSGVPDRFSGRGSGTDFTLKISRVEAEDVGVYYCMQSIQYPITFGQGTRLEIK
notes: hybridoma mAb
B11: 172B12 (antibody, V domains shown)
VH: QVQLVQSGAEVKKPGASVTVSCKASGYTFRSYYMYWVRQAPGQGLEWVGTINPSGGSTDYAQKFQGRVTMTRDTSTSTLYMELNSLRSEDTAVYYCASGWELNYWGQGTLVTVSS
VL: SSELTQDPAVSVALGQTVRITCQGDSLRNYYASWYQQKPGQAPILVIYTKNSRPSGIPDRFSGSTSGNTASLTITGAQAEDEADYYCNSRDSSGNHVVFGGGTKLTVL
notes: hybridoma mAb
B12: 172C3 (antibody, V domains shown)
VH: B11 VH with T19K, D59N
VL: B11 VL with A32V, A77T
notes: hybridoma mAb
B13: 202A3 (antibody, V domains shown)
VH: QVQLEQSGAEVKKPGASVKVSCKASGYTFTSYDINWVRQATGQGLEWLGWMNPKRGNTGYAQKFQGRVTMTRNTSISTAHMELSSLRSEDTAVYYCARGRYSREDYYYYYDMDVWGQGTTVTVSS
VL: DIQMSQSPSSLSASVGDRVTITCRASQGIRNDLGWYQQKPGKAPKRLICAASRLQSGVPSRFSGSGSGTEFTLTISSLQPEDFAIYYCLQHHDYPFTFGPGTKVDIK
notes: hybridoma mAb
B14: 196F4 (antibody, V domains shown)
VH: EVQLLESGGGLVQPGGSLRFSCAASGFTFSSCAMTWVRQAPGKGLEWVSAISGSGGSTYYADSVKGRFTISRDNSKNTLYLQMNSLRAEDTAVYYCAKVGGLTGSYYYYGMDVWGQGTTVTVSS
VL: DFQMIQSPSSLSASVGDRVTITCRASQRIHSYLNWYQQKPGKAPKLLIYTASSLQGGVPSRFSGSGSGTDFTLTISSLQPEDFATYYCQQSYGSPLTFGGGTKVEIK
notes: hybridoma mAb
B15: 193E7 (antibody, V domains shown)
VH: QVQLQQWGAGLLKPSETLSLTCAVYGGSFSGYFWTWIRQPPGKGLEWIGEINHSGSTNYNPSLKSRVTISVDTSKNQFSLKLSSVTAADTAVYYCARDYGADYWGQGTLVAVSA
VL: DIQMTQSPSSLSASVGDRVTITCRASQGIRNDLGWYQQKPGKAPKRLIYSASSLQRGVPSRFSGSGSGTEFTLTISSLQPEDFATYYCLQHKRYPLTFGGGTKVEIK
notes: hybridoma mAb
B16: 199E3 (antibody, V domains shown)
VH: B15 VH
VL: B15 VL with Y49S
notes: hybridoma mAb

These binders were tested against T1, recombinant, soluble human ASGR-1 (assay: Octet BLI dissociation, pH 5.6 plus calcium).
In short: (§1)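 Antibodies were captured on anti-human Fc biosensors, and soluble ASGR-1 (6 ug/ml) was associated for 2 min in Tris buffer containing 1 mM CaCl2 at pH 7.4, followed by 10 min dissociation under each test condition. The signal at the end of association was set as 100%. Percent ASGR-1 still bound after 1 min of dissociation was compared with the pH 7.4 plus calcium control, and >10% extra dissociation was scored as sensitive.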

| % Change Compared to pH 7.4 + Calcium [%] | Binder |
| --- | --- |
| -5 | B1 |
| 51 | B2 |
| -4 | B3 |
| 54 | B4 |
| 41 | B5 |
| 50 | B6 |
| -30 | B7 |
| 0 | B8 |
| 10 | B9 |
| 3 | B10 |
| -27 | B11 |
| -26 | B12 |
| -22 | B13 |
| -5 | B14 |
| -9 | B15 |
| -4 | B16 |

The binders below were run against T1, recombinant, soluble human ASGR-1 (assay: Octet BLI dissociation, pH 5.6 minus calcium).
In short: as §1

| % Change Compared to pH 7.4 + Calcium [%] | Binder |
| --- | --- |
| 13 | B1 |
| 77 | B2 |
| 26 | B3 |
| 73 | B4 |
| 65 | B5 |
| 100 | B6 |
| -28 | B7 |
| 23 | B8 |
| 16 | B9 |
| 45 | B10 |
| -13 | B11 |
| 0 | B12 |
| -23 | B13 |
| -6 | B14 |
| -4 | B15 |
| -4 | B16 |

The binders below were run against T1, recombinant, soluble human ASGR-1 (assay: Octet BLI dissociation, pH 7.4 minus calcium).
In short: as §1

| % Change Compared to pH 7.4 + Calcium [%] | Binder |
| --- | --- |
| 2 | B1 |
| 100 | B2 |
| 2 | B3 |
| 100 | B4 |
| 77 | B5 |
| 80 | B6 |
| -8 | B7 |
| 13 | B8 |
| 2 | B9 |
| 21 | B10 |
| -14 | B11 |
| -9 | B12 |
| -21 | B13 |
| -8 | B14 |
| -9 | B15 |
| -5 | B16 |
